Source: article PMC2756588

T1: Abp1, P15891
T1 sequence (P15891 535-592, looked up): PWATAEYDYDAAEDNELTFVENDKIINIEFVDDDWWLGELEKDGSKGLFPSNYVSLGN

T2: Bbc1, P47068
T2 sequence (P47068 1-78, looked up): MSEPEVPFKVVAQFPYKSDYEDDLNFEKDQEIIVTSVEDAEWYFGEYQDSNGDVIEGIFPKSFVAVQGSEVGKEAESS

T3: Boi1, P38041
T3 sequence (P38041 1-86, looked up): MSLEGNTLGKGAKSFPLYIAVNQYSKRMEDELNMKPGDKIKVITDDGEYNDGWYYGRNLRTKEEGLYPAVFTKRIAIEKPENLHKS

T4: Boi2, P39969
T4 sequence (P39969 32-116, looked up): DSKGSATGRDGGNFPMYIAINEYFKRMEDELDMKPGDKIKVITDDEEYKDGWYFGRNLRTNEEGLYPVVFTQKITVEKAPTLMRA

T5: Bud14, P27637
T5 sequence (P27637 247-328, looked up): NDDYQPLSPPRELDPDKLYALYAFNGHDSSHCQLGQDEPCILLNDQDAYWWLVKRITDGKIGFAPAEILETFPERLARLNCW

T6: Bzz1-1, P38822
T6 sequence (P38822 478-572, looked up): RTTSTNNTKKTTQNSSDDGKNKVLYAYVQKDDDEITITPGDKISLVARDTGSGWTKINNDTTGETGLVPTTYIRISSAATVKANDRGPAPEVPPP

T7: Bzz1-2, P38822
T7 sequence (P38822 568-633, looked up): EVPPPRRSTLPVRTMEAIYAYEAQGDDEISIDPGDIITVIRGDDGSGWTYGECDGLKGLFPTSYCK

T8: Cdc25, P04821
T8 sequence (P04821 50-136, looked up): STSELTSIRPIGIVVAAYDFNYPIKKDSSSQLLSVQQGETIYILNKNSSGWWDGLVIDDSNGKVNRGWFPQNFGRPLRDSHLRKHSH

T9: Cyk3, Q07533
T9 sequence (Q07533 1-83, looked up): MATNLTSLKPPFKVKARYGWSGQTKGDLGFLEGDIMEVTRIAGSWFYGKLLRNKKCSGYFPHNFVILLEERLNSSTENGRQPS

T10: Fus1, P11710
T10 sequence (P11710 432-512, looked up): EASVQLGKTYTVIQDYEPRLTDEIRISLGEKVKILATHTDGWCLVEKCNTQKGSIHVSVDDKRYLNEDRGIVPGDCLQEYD

T11: Hof1, Q05080
T11 sequence (Q05080 590-669, looked up): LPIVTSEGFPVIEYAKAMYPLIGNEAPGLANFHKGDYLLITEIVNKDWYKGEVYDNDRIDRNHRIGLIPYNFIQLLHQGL

T12: Hse1, P38753
T12 sequence (P38753 208-285, looked up): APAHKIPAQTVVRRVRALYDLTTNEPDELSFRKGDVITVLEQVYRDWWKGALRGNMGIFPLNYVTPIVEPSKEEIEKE

T13: Lsb1, P53281
T13 sequence (P53281 45-122, looked up): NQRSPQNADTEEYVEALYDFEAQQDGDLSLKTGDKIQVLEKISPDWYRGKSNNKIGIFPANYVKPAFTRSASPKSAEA

T14: Lsb3, P43603
T14 sequence (P43603 385-451, looked up): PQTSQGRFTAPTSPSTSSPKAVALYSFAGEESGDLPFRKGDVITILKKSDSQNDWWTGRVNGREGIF

T15: Lsb4, P32793
T15 sequence (P32793 402-468, looked up): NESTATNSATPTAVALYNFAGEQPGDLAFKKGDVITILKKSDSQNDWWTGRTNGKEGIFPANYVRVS

T16: Myo5, Q04439
T16 sequence (Q04439 1072-1160, looked up): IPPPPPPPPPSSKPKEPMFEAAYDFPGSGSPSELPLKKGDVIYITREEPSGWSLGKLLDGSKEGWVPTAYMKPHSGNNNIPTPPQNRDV

T17: Nbp2, Q12163
T17 sequence (Q12163 103-180, looked up): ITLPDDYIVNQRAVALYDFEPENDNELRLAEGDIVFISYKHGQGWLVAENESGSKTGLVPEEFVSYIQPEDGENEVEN

T18: Pex13, P80667
T18 sequence (P80667 295-386, looked up): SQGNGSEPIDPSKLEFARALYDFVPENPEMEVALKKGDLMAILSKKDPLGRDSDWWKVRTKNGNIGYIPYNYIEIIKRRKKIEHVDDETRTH

T19: Pin3, Q06449
T19 sequence (Q06449 53-122, looked up): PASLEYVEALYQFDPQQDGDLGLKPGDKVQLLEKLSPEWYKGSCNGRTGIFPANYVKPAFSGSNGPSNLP

T20: Sla1-2, P32790
T20 sequence (P32790 60-140, looked up): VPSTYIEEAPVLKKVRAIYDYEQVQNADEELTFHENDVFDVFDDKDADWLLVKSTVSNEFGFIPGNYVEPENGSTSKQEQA

T21: Sla1-3, P32790
T21 sequence (P32790 344-424, looked up): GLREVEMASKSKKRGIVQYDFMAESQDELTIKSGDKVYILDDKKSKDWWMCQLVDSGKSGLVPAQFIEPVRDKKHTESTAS


How the values were obtained:
Experiment in all cases: SPOT array
Abp1, P15891 = molecular target: T1, Abp1, P15891; conditions: median of control spots 935
Bbc1, P47068 = molecular target: T2, Bbc1, P47068; conditions: median of control spots 796
Bem1-1, P29366 = conditions: median of control spots 4282
Bem1-2, P29366 = conditions: median of control spots 4347
Boi1, P38041 = molecular target: T3, Boi1, P38041; conditions: median of control spots 1162
Boi2, P39969 = molecular target: T4, Boi2, P39969; conditions: median of control spots 1161
Bud14, P27637 = molecular target: T5, Bud14, P27637; conditions: median of control spots 956
Bzz1-1, P38822 = molecular target: T6, Bzz1-1, P38822; conditions: median of control spots 4446
Bzz1-2, P38822 = molecular target: T7, Bzz1-2, P38822; conditions: median of control spots 4538
Cdc25, P04821 = molecular target: T8, Cdc25, P04821; conditions: median of control spots 969
Cyk3, Q07533 = molecular target: T9, Cyk3, Q07533; conditions: median of control spots 1451
Fus1, P11710 = molecular target: T10, Fus1, P11710; conditions: median of control spots 1200
GST = conditions: median of control spots 978
Hof1, Q05080 = molecular target: T11, Hof1, Q05080; conditions: median of control spots 4086
Hse1, P38753 = molecular target: T12, Hse1, P38753; conditions: median of control spots 1727
Lsb1, P53281 = molecular target: T13, Lsb1, P53281; conditions: median of control spots 388
Lsb3, P43603 = molecular target: T14, Lsb3, P43603; conditions: median of control spots 406
Lsb4, P32793 = molecular target: T15, Lsb4, P32793; conditions: median of control spots 397
Myo3, P36006 = conditions: median of control spots 468
Myo5, Q04439 = molecular target: T16, Myo5, Q04439; conditions: median of control spots 471
Nbp2, Q12163 = molecular target: T17, Nbp2, Q12163; conditions: median of control spots 357
Pex13, P80667 = molecular target: T18, Pex13, P80667; conditions: median of control spots 1341
Pin3, Q06449 = molecular target: T19, Pin3, Q06449; conditions: median of control spots 2171
Rvs167, P39743 = conditions: median of control spots 2707
Sho1, P40073 = conditions: median of control spots 1148
Sla1-2, P32790 = molecular target: T20, Sla1-2, P32790; conditions: median of control spots 712
Sla1-3, P32790 = molecular target: T21, Sla1-3, P32790; conditions: median of control spots 5475

Sho1, P40073, sequence (P40073 287-367): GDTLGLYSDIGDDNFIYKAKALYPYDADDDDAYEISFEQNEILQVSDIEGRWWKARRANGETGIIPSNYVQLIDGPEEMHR
Bem1-1, P29366, sequence (P29366 55-141): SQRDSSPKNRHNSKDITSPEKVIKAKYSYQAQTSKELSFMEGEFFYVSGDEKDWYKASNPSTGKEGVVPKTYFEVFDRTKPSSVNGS
Bem1-2, P29366, sequence (P29366 139-227): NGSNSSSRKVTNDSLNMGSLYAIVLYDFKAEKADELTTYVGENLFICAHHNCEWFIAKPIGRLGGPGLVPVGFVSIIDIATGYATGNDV
Rvs167, P39743, sequence (P39743 419-482): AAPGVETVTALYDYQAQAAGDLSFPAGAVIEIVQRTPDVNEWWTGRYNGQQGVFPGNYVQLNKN

Binder | SPOT intensity (Abp1, P15891) | SPOT intensity (Bbc1, P47068) | SPOT intensity (Bem1-1, P29366) | SPOT intensity (Bem1-2, P29366) | SPOT intensity (Boi1, P38041) | SPOT intensity (Boi2, P39969) | SPOT intensity (Bud14, P27637) | SPOT intensity (Bzz1-1, P38822) | SPOT intensity (Bzz1-2, P38822) | SPOT intensity (Cdc25, P04821) | SPOT intensity (Cyk3, Q07533) | SPOT intensity (Fus1, P11710) | SPOT intensity (GST) | SPOT intensity (Hof1, Q05080) | SPOT intensity (Hse1, P38753) | SPOT intensity (Lsb1, P53281) | SPOT intensity (Lsb3, P43603) | SPOT intensity (Lsb4, P32793) | SPOT intensity (Myo3, P36006) | SPOT intensity (Myo5, Q04439) | also measured
SKSRLLIELPEGFFT | 0 | 0 | 0 | 0 | 1 | 1 | 1 | 1 | 0 | 66 | 0 | 0 | 0 | 0 | 0 | 0 | 0 | 0 | 0 | 0 | SPOT intensity (Nbp2, Q12163): 0; SPOT intensity (Pex13, P80667): 14; SPOT intensity (Pin3, Q06449): 4; SPOT intensity (Rvs167, P39743): 0; SPOT intensity (Sho1, P40073): 10; SPOT intensity (Sla1-2, P32790): 0; SPOT intensity (Sla1-3, P32790): 0
LLIRWLILMPLVGSR | 166 | 339 | 0 | 4 | 23 | 4 | 29 | 3 | 7 | 176 | 4 | 168 | 2 | 12 | 25 | 47 | 6 | 25 | 34 | 10 | SPOT intensity (Nbp2, Q12163): 215; SPOT intensity (Pex13, P80667): 78; SPOT intensity (Pin3, Q06449): 47; SPOT intensity (Rvs167, P39743): 1; SPOT intensity (Sho1, P40073): 150; SPOT intensity (Sla1-2, P32790): 3; SPOT intensity (Sla1-3, P32790): 7
FHLNPKRSAVLYDRP | 24 | 10 | 245 | 308 | 0 | 0 | 9 | 3 | 38 | 25 | 0 | 309 | 5 | 83 | 40 | 0 | 0 | 0 | 0 | 1 | SPOT intensity (Nbp2, Q12163): 0; SPOT intensity (Pex13, P80667): 35; SPOT intensity (Pin3, Q06449): 32; SPOT intensity (Rvs167, P39743): 7; SPOT intensity (Sho1, P40073): 35; SPOT intensity (Sla1-2, P32790): 0; SPOT intensity (Sla1-3, P32790): 140
